According to the supplement of paper PMC11246515:
± gives the standard deviation of the averaged measurements.

Assay: total protein half-life in vivo (active degradation + dilution); higher = more stable protein
[1] = E. coli NCM3722 delta-clpP delta-lon delta-hslV, growth: N-lim chemostat, doubling time 6 h
[2] = E. coli NCM3722 delta-clpP, growth: N-lim chemostat, doubling time 6 h
[3] = E. coli NCM3722 delta-hslV, growth: N-lim chemostat, doubling time 6 h
[4] = E. coli NCM3722 delta-lon, growth: N-lim chemostat, doubling time 6 h
[5] = E. coli NCM3722 delta-smpB, growth: N-lim chemostat, doubling time 6 h
[6] = wild type E. coli NCM3722, growth: C-lim chemostat, doubling time 3 h
[7] = wild type E. coli NCM3722, growth: C-lim chemostat, doubling time 6 h
[8] = wild type E. coli NCM3722, growth: C-lim chemostat, doubling time 12 h
[9] = wild type E. coli NCM3722, growth: N-lim chemostat, doubling time 6 h
[10] = wild type E. coli NCM3722, growth: N-lim chemostat, doubling time 12 h
[11] = wild type E. coli NCM3722, growth: P-lim chemostat, doubling time 6 h
[12] = wild type E. coli NCM3722, growth: P-lim chemostat, doubling time 12 h

## MKIVEVKHPLVKHKLGLMREQDISTKRFRELASEVGSLLTYEATADLETEKVTIEGWNGPVEIDQIKGKKITVVPILRAGLGMMDGVLENVPSARISVVGMYRNEETLEPVPYFQKLVSNIDERMALIVDPMLATGGSVIATIDLLKKAGCSSIKVLVLVAAPEGIAALEKAHPDVELYTASIDQGLNEHGYIIPGLGDAGDKIFGTK [P0A8F0]
[1]
  total protein half-life in vivo: 5.6625 ± 0.0038 h
[2]
  total protein half-life in vivo: 5.17 ± 0.33 h
[3]
  total protein half-life in vivo: 5.83 ± 0.94 h
[4]
  total protein half-life in vivo: 5.36 ± 0.61 h
[5]
  total protein half-life in vivo: 5.3 ± 0.15 h
[6]
  total protein half-life in vivo: 3.05 ± 0.29 h
[7]
  total protein half-life in vivo: 5.86 ± 0.36 h
[8]
  total protein half-life in vivo: 10.9 ± 1.4 h
[9]
  total protein half-life in vivo: 5.71 ± 0.23 h
[10]
  total protein half-life in vivo: 12.1 ± 2.8 h
[11]
  total protein half-life in vivo: 6.55 ± 0.34 h
[12]
  total protein half-life in vivo: 11.3 ± 0.98 h

## MTHVCSVILIRRSFDIYHEQQKISLHNESILLLEKNLADDFAFCSPDTRRLDIDELTVCHYLQNIRQLPRNLGLHSKDRLLINQSPPMPLVTAIFDSFNESGVNSPILSNMLYLSCLSMFSHKKELIPLLFNSISTVSGKVERLISFDIAKRWYLRDIAERMYTSESLIKKKLQDENTCFSKILLASRMSMARRLLELRQIPLHTIAEKCGYSSTSYFINTFRQYYGVTPHQFAQHSPGTFS
[1]
  total protein half-life in vivo: 5.33 ± 0.16 h
[2]
  total protein half-life in vivo: 1.51 h
[5]
  total protein half-life in vivo: 0.628 h
[9]
  total protein half-life in vivo: 0.171 h

## MLRFLNQCSQGRGAWLLMAFTALALELTALWFQHVMLLKPCVLCIYERCALFGVLGAALIGAIAPKTPLRYVAMVIWLYSAFRGVQLTYEHTMLQLYPSPFATCDFMVRFPEWLPLDKWVPQVFVASGDCAERQWDFLGLEMPQWLLGIFIAYLIVAVLVVISQPFKAKKRDLFGR [P0A6M2]
[2]
  total protein half-life in vivo: 6.09 h
[4]
  total protein half-life in vivo: > 8 h
[9]
  total protein half-life in vivo: 6.88 h
[10]
  total protein half-life in vivo: 9.57 h
[11]
  total protein half-life in vivo: 5.52 h

## MQKLKQQVFEANMELPRYGLVTFTWGNVSAIDRERGLVVIKPSGVAYETMKAADMVVVDMSGKVVEGEYRPSSDTATHLELYRRYPSLGGIVHTHSTHATAWAQAGLAIPALGTTHADYFFGDIPCTRGLSEEEVQGEYELNTGKVIIETLGNAEPLHTPGIVVYQHGPFAWGKDAHDAVHNAVVMEEVAKMAWIARGINPQLNHIDSFLMNKHFMRKHGPNAYYGQK
[1]
  total protein half-life in vivo: 4.02 ± 1.1 h

## MITRIPRSSFSANINNTAQTNEHQTLSELFYKELEDKFSGKELATPLLKSFSENCRQNGRHIFSNKDFVIKFSTSVLQADKKEITIINKNENTTLTQTIAPIFEKYLMEILPQRSDTLDKQELNLKSDRKEKEFPRIKLNGQCYFPGRPQNRIVCRHIAAQYINDIYQNVDYKPHQDDYSSAEKFLTHFNKKCKNQTLALVSSRPEGRCVAACGDFGLVMKAYFDKMESNGISVMAAILLVDNHALTVRLRIKNTTEGCTHYVVSVYDPNVTNDKIRIMSESKENIKHYSLMDFMNVDYSLLKWSNDHVINQSVAIIPALPKEQLLMLKGSVDEITPPLSPATMNLLMAIGQNHQLTQLMIQLQKMPELHRTEMLTAYNSINLPGLYLAINYGNADIVETIFNSLSETGYEGLLSKKNLMHILEAKDKNGFSGLFLAISRKDKNVVTSILNALPKLAATHHLDNEQVYKFLSAKNRTSSHVLYHVMANGDADMLKIVLNALPLLIRTCHLTKEQVLDLLKAKDFYGCPGLYLAMQNGHSDIVKVILEALPSLAQEINISASDIVDLLTAKSLARDTGLFMAMQRGHMNVINTIFNALPTLFNTFKFDKKNMKPLLLANNSNEYPGLFSAIQHKQQNVVETVYLALSDHARLFGFTAEDIMDFWQHKAPQKYSAFELAFEFGHRVIAELILNTLNKMAESFGFTDNPRYIAEKNYMEALLKKASPHTVR
[7]
  total protein half-life in vivo: 5.49 h

## MDIIGGQHLRQMWDDLADVYGHKTALICESSGGVVNRYSYLELNQEINRTANLFYTLGIRKGDKVALHLDNCPEFIFCWFGLAKIGAIMVPINARLLCEESAWILQNSQACLLVTSAQFYPMYQQIQQEDATQLRHICLTDVALPADDGVSSFTQLKNQQPATLCYAPPLSTDDTAEILFTSGTTSRPKGVVITHYNLRFAGYYSAWQCALRDDDVYLTVMPAFHIDCQCTAAMAAFSAGATFVLVEKYSARAFWGQVQKYRATVTECIPMMIRTLMVQPPSANDQQHRLREVMFYLNLSEQEKDAFCERFGVRLLTSYGMTETIVGIIGDRPGDKRRWPSIGRVGFCYEAEIRDDHNRPLPAGEIGEICIKGIPGKTIFKEYFLNPQATAKVLEADGWLHTGDTGYRDEEDFFYFVDRRCNMIKRGGENVSCVELENIIAAHPKIQDIVVVGIKDSIRDEAIKAFVVLNEGETLSEEEFFRFCEQNMAKFKVPSYLEIRKDLPRNCSGKIIRKNLK
[1]
  total protein half-life in vivo: 5.31 h
[3]
  total protein half-life in vivo: 6.57 h
[5]
  total protein half-life in vivo: 3.61 ± 0.13 h
[8]
  total protein half-life in vivo: 11.3 h
[9]
  total protein half-life in vivo: 4.98 h
[10]
  total protein half-life in vivo: 7.9 h
[12]
  total protein half-life in vivo: 10.7 ± 0.12 h

## MIDYTAAGFTLLQGAHLYAPEDRGICDVLVANGKIIAVASNIPSDIVPNCTVVDLSGQILCPGFIDQHVHLIGGGGEAGPTTRTPEVALSRLTEAGVTSVVGLLGTDSISRHPESLLAKTRALNEEGISAWMLTGAYHVPSRTITGSVEKDVAIIDRVIGVKCAISDHRSAAPDVYHLANMAAESRVGGLLGGKPGVTVFHMGDSKKALQPIYDLLENCDVPISKLLPTHVNRNVPLFEQALEFARKGGTIDITSSIDEPVAPAEGIARAVQAGIPLARVTLSSDGNGSQPFFDDEGNLTHIGVAGFETLLETVQVLVKDYDFSISDALRPLTSSVAGFLNLTGKGEILPGNDADLLVMTPELRIEQVYARGKLMVKDGKACVKGTFETA
[1]
  total protein half-life in vivo: 6.21 ± 0.27 h
[2]
  total protein half-life in vivo: 5.9 ± 0.13 h
[3]
  total protein half-life in vivo: 5.497 ± 0.0056 h
[4]
  total protein half-life in vivo: 5.68 ± 0.064 h
[5]
  total protein half-life in vivo: 5.3 ± 0.21 h
[6]
  total protein half-life in vivo: 2.93 ± 0.1 h
[7]
  total protein half-life in vivo: 5.97 ± 0.45 h
[8]
  total protein half-life in vivo: 12.8 ± 0.66 h
[9]
  total protein half-life in vivo: 5.29 ± 0.25 h
[10]
  total protein half-life in vivo: 9.01 ± 0.33 h
[11]
  total protein half-life in vivo: 6.11 ± 0.39 h
[12]
  total protein half-life in vivo: 13.1 ± 0.29 h

## MKGGKRVQTARPNRINGEIRAQEVRLTGLEGEQLGIVSLREALEKAEEAGVDLVEISPNAEPPVCRIMDYGKFLYEKSKSSKEQKKKQKVIQVKEIKFRPGTDEGDYQVKLRSLIRFLEEGDKAKITLRFRGREMAHQQIGMEVLNRVKDDLQELAVVESFPTKIEGRQMIMVLAPKKKQ [P0A707]
[1]
  total protein half-life in vivo: 5.98 ± 0.11 h
[2]
  total protein half-life in vivo: 5.66 ± 0.61 h
[3]
  total protein half-life in vivo: 5.02 ± 0.54 h
[4]
  total protein half-life in vivo: 6.492 ± 0.032 h
[5]
  total protein half-life in vivo: 5.12 ± 0.1 h
[6]
  total protein half-life in vivo: 3.35 ± 0.084 h
[7]
  total protein half-life in vivo: 5.555 ± 0.039 h
[8]
  total protein half-life in vivo: 10.5 ± 0.76 h
[9]
  total protein half-life in vivo: 4.69 ± 0.57 h
[10]
  total protein half-life in vivo: 10.9 ± 1.7 h
[11]
  total protein half-life in vivo: 4.89 ± 0.27 h
[12]
  total protein half-life in vivo: 10.4 ± 0.88 h

## MVDKSQETTHFGFQTVAKEQKADMVAHVFHSVASKYDVMNDLMSFGIHRLWKRFTIDCSGVRRGQTVLDLAGGTGDLTAKFSRLVGETGKVVLADINESMLKMGREKLRNIGVIGNVEYVQANAEALPFPDNTFDCITISFGLRNVTDKDKALRSMYRVLKPGGRLLVLEFSKPIIEPLSKAYDAYSFHVLPRIGSLVANDADSYRYLAESIRMHPDQDTLKAMMQDAGFESVDYYNLTAGVVALHRGYKF [P0A887]
[1]
  total protein half-life in vivo: 5.402 ± 0.0099 h
[2]
  total protein half-life in vivo: 4.951 ± 0.013 h
[3]
  total protein half-life in vivo: 4.18 ± 0.12 h
[4]
  total protein half-life in vivo: 4.9 ± 0.36 h
[5]
  total protein half-life in vivo: 4.19 ± 0.076 h
[6]
  total protein half-life in vivo: 2.405 ± 0.0086 h
[7]
  total protein half-life in vivo: 4.67 ± 0.086 h
[8]
  total protein half-life in vivo: 7.96 ± 0.38 h
[9]
  total protein half-life in vivo: 4.36 ± 0.36 h
[10]
  total protein half-life in vivo: 8.27 ± 1.5 h
[11]
  total protein half-life in vivo: 4.45 ± 0.31 h
[12]
  total protein half-life in vivo: 8.773 ± 0.069 h
